Ends that are not written are not given here.
Tests used:
[1] = target: T1, human zeta-chain on the surface of CD8+ T-lymphocytes and NK-cells (human, UniProt P20963 22-164); assay: flow cytometry on human PBMC gated for CD8+ T-lymphocytes and NK-cells
T1 construct: whole, on cells; also called extracellular domain of the human zeta-chain on intact cells
Experimental: FIG. 3: Flowcytometry-analysis of the zeta-chain specific binding activity of the 2-B-5 antibody on the surface of CD8⁺-T-lymphocytes and NK-cells. 100.000 mononucleated cells from peripheral blood of two different healthy donors were incubated with undiluted cell culture supernatant of the 2-B-5 hybridoma. Bound zeta-chain specific rat antibody was detected by a fluorescein (FITC) conjugated goat-anti-rat Ig (IgG+IgM) antibody diluted 1:100 in PBS. Triple color fluorescence analysis was carried out by applying a positive gate for CD8⁺ (Tricolor) and a negative gate for CD16⁺ (PE) cells thus allowing the detection of FITC-mediated fluorescence (filled lines) exclusively attributed to CD8⁺-T-lymphocytes (phenotype: CD8⁺, CD16⁻) without any contaminating signals from CD8⁺-NK-cells. Similarly, triple color fluorescence analysis was carried out by applying a positive gate for CD56⁺-(PE) and a negative gate for CD3⁺-cells (tricolor) thus allowing the detection of FITC-mediated fluorescence (filled lines) exclusively attributed to NK-cells (phenotype: CD56⁺, CD3⁻) without any contaminating signals from CD56⁺-T-lymphocytes. As isotype control (broken lines) culture supernatant of an antibody with the same isotype (rat IgM) but irrelevant specificity was used. […] Cells were analyzed by flowcytometry on a FACS-scan (Becton Dickinson).

[2] = target: T2, zeta-peptide-BSA-conjugate (not fully specified (residue 11); also: C-terminal Cys thiol coupled to BSA); assay: ELISA of rat hybridoma supernatants (diluted 1:1) on immobilized zeta-peptide-BSA-conjugate
T2 construct: also called zeta-peptide conjugated to bovine serum albumin
T2 peptide: QSFGLLDPKLC

[3] = target: T3, native zeta-chain from the lysate of CD8+ T-lymphocytes (human, UniProt P20963 22-164); assay: sandwich ELISA: zeta-chain from lysate captured by the antibody to amino acids 144-163, 2-B-5 at 1 ug/ml
T3 construct: Endogenous protein in a detergent lysate, captured on the plate by an antibody to the C-terminus; also called zeta-chain molecules from the T-cell lysate
T3 sequence (P20963 22-164 limits assumed): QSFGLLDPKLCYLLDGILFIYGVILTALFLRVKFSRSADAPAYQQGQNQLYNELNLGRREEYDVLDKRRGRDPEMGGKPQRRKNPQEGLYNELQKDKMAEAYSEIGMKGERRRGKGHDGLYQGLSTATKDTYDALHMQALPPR
Experimental: FIG. 4: Results of a Sandwich-ELISA confirming the reactivity of antibody 2-B-5 with native zeta-chain present in the lysate of the CD8⁺-T-cell lymphocytes. A zeta-chain specific antibody, which recognizes the amino acids 144-163 at the carboxy-terminus of the human zeta chain was coated for 12 hours to the wells of a 96 U-bottom plate, followed by blockade for one hour at room temperature with PBS/3% BSA. Subsequently the lysate of CD8⁺-cells was added undiluted and in several dilutions and incubated for one hour at room temperature. As negative control, the wells were incubated with PBS instead of the cell lysate. […] Bound 2-B-5 antibody was detected with a biotinylated mouse-anti-rat IgM antibody followed by an Avidin-peroxidase-conjugate. […] The colored precipitate was measured at 405 nm using an ELISA-reader.
A zeta-chain specific antibody (Santa Cruz Biotechnology, Cat-No 1124), which recognizes the amino acids 144-163 at the carboxy-terminus of the zeta chain was coated to wells of a 96 U-bottom plate (Nunc, maxisorb) at a concentration of 5 μg/ml. […] Bound 2-B-5 antibody was detected with a biotinylated mouse-anti-rat IgM antibody (Zymed, San Francisco, Calif., USA; Cat-No 03-9840; working concentration 400 ng/ml) followed by an Avidin-peroxidase-conjugate (Dako, Hamburg; Code-No P 03347; working concentration 1 μg/ml). […]

Measured: binding result

T1 sequence (P20963 22-164): as the sequence (P20963 22-164 limits assumed) above

B1: rat monoclonal anti-zeta-chain antibody 2-B-5 (rat IgM) (antibody, V domains shown)
VH: QVQLQQSGAELVKPGSSVKISCKASGYTFTSYDMHWIKQQPGNGLEWIGWIYPGNGNTKYNQKFNGKATLTADKSSSTAYMQLSSLTSEDSAVYFCARDWHYYSSYIRPFAYWGQGTLVTVSS
VL: DIQMTQSPASLSASPEEIVTITCQASQDIGNWLAWYQQKPGKSPQLLIYSATSLADGIPSRFSGSRSGTQYSLKISRLQVEDTGIYYCLQRYSNPNTFGAGTKLELK
notes: Rat IgM with kappa light chain; Used as hybridoma culture supernatant or purified by ion exchange chromatography; The constant regions are rat mu and kappa; also called 2-B-S; 2-B-5 hybridoma antibody
binds: all assays above
